Patent US20230212319A1, “NOVEL ANTIGEN BINDING DOMAINS AND SYNTHETIC ANTIGEN RECEPTORS INCORPORATING THE SAME” (University of Southern California, priority 2020, published 2023)

B1: 22166 (protein)
chain: MALPVTALLLPLALLLHAARPEVQLQESGGGLVQPGGSLRLSCAASGRTFSSLFMGWFRQAPGKERELVAAISRYSLYTYYADSVKGRFTISADNAKNAVYLQMNSLKPEDTAVYYCASKLEYTSNDYDSWGQGTQVTVSSGTGGGGSGGGGSGGGGSEFDIQMTQSPSSLSASVGDRVTITCKASDHINNWLAWYQQKPGQAPKLLIYGATTLETGVPSRFSGSGSGTDYTLTISSLQPEDFATYYCQQSWNTPWTFGQGTKLEIKRLEIQNPDPAVYQLRDSKSSDKSVCLFTDFDSQTNVSQSKDSDVYITDKCVLDMRSMDFKSNSAVAWSNKSDFACANAFNNSIIPEDTFFPSSDVPCDVKLVEKSFETDTNLNFQNLSVIGFRILLLKVAGFNLLMTLRLWSSRAKRSGSGVKQTLNFDLLKLAGDVESNPGPTSATMDWIWRILFLVGAATGAHSGPQVQLQESGGGLAQAGGSLRLSCAASGRTFSMGWFRQAPGKEREFVAAITYSGGSPYYASSVRGRFTISRDNAKNTVYLQMNSLKPEDTAVYYCAANPTYGSDWNAENWGQGTQVTVSSGSGGGGSGGGGSGGGGSFEQVQLQQPGAELVKPGASVKMSCKASGYAFSSYWINWMKQKPGQGLEWIGQIYPGDGDTNYNGKFKGRATLTADTSSSTAYMQLSSLTSEDSAVYFCARSITTVVGCAMDYWGQGTSVTVSSTREDLKNVFPPEVAVFEPSKAEIAHTQKATLVCLATGFYPDHVELSWWVNGKEVHSGVCTDPQPLKEQPALNDSRYCLSSRLRVSATFWQNPRNHFRCQVQFYGLSENDEWTQDRAKPVTQIVSAEAWGRADCGITSASYHQGVLSATILYEILLGKATLYAVLVSALVLMAMVKRKDSRGRAKRSGSGATNFSLLKQAGDVEENPGPSRGHMTEYKPTVRLATRDDVPRAVRTLAAAFADYPATRHTVDPDRHIERVTELQELFLTRVGLDIGKVWVADDGAAVAVWTTPESVEAGAVFAEIGPRMAELSGSRLAAQQQMEGLLAPHRPKEPAWFLATVGVSPDHQGKGLGSAVVLPGVEAAERAGVPAFLETSAPRNLPFYERLGFTVTADVEVPEGPRTWCMTRKPGA
B2: 21882 (protein)
chain: MALPVTALLLPLALLLHAARPDIQMTQSPSSLSASVGDRVTITCKASQDVGTAVDWYQQKPGKAPKLLISWASTRHTGVPSRFSGSGSGTDFTLTISSLQPEDFATYFCQQYNSYPLTFGQGTKVEIKRTVLEDLKNVFPPEVAVFEPSEAEISHTQKATLVCLATGFYPDHVELSWWVNGKEVHSGVCTDPQPLKEQPALNDSRYCLSSRLRVSATFWQNPRNHFRCQVQFYGLSENDEWTQDRAKPVTQIVSAEAWGRADCGFTSESYQQGVLSATILYEILLGKATLYAVLVSALVLMAMVKRKDSRGRAKRSGSGATNFSLLKQAGDVEENPGPTSMDWIWRILFLVGAATGAHSFEVQLVESGGGLVQPGGSLRLSCAASGFTFTDYTIHWVRQAPGKGLEWVANINPNNGGTTYNQKFEDRFTISRDNSKNTLYLQMNSLRAEDTAVYYCARGWNFDYWGQGTLVTVSSTRIQNPDPAVYQLRDSKSSDKSVCLFTDFDSQTNVSQSKDSDVYITDKCVLDMRSMDFKSNSAVAWSNKSDFACANAFNNSIIPEDTFFPSPESSCDVKLVEKSFETDTNLNFQNLSVIGFRILLLKVAGFNLLMTLRLWSSRAKRSGSGVKQTLNFDLLKLAGDVESNPGPSRGHMTEYKPTVRLATRDDVPRAVRTLAAAFADYPATRHTVDPDRHIERVTELQELFLTRVGLDIGKVWVADDGAAVAVWTTPESVEAGAVFAEIGPRMAELSGSRLAAQQQMEGLLAPHRPKEPAWFLATVGVSPDHQGKGLGSAVVLPGVEAAERAGVPAFLETSAPRNLPFYERLGFTVTADVEVPEGPRTWCMTRKPGA
B3: 22177 (protein)
chain: MALPVTALLLPLALLLHAARPLFNQEVQIPLTESYCGPCPKNWICYKNNCYQFFDESKNWYESQASCMSQNASLLKVYSKEDQDLLKLVKSYHWMGLVHIPTNGSWQWEDGSILSPNLLTIIEMQKGDCALYASSFKGYIENCSTPNTYICMQRTVGGGGSGGGGSGGGGSDLFNQEVQIPLTESYCGPCPKNWICYKNNCYQFFDESKNWYESQASCMSQNASLLKVYSKEDQDLLKLVKSYHWMGLVHIPTNGSWQWEDGSILSPNLLTIIEMQKGDCALYASSFKGYIENCSTPNTYICMQRTVGTGGGGSGGGGSGGGGSEFDIQMTQSPSSLSASVGDRVTITCKASDHINNWLAWYQQKPGQAPKLLIYGATTLETGVPSRFSGSGSGTDYTLTISSLQPEDFATYYCQQSWNTPWTFGQGTKLEIKRLEDLKNVFPPEVAVFEPSKAEIAHTQKATLVCLATGFYPDHVELSWWVNGKEVHSGVCTDPQPLKEQPALNDSRYCLSSRLRVSATFWQNPRNHFRCQVQFYGLSENDEWTQDRAKPVTQIVSAEAWGRADCGITSASYHQGVLSATILYEILLGKATLYAVLVSALVLMAMVKRKDSRGRAKRSGSGATNFSLLKQAGDVEENPGPTSATMDWIWRILFLVGAATGAHSGPQVQLQESGGGLAQAGGSLRLSCAASGRTFSMGWFRQAPGKEREFVAAITYSGGSPYYASSVRGRFTISRDNAKNTVYLQMNSLKPEDTAVYYCAANPTYGSDWNAENWGQGTQVTVSSGSGGGGSGGGGSGGGGSFEQVQLQQPGAELVKPGASVKMSCKASGYAFSSYWINWMKQKPGQGLEWIGQIYPGDGDTNYNGKFKGRATLTADTSSSTAYMQLSSLTSEDSAVYFCARSITTVVGCAMDYWGQGTSVTVSSTRIQNPDPAVYQLRDSKSSDKSVCLFTDFDSQTNVSQSKDSDVYITDKCVLDMRSMDFKSNSAVAWSNKSDFACANAFNNSIIPEDTFFPSSDVPCDVKLVEKSFETDTNLNFQNLSVIGFRILLLKVAGFNLLMTLRLWSSRAKRSGSGVKQTLNFDLLKLAGDVESNPGPSRGHMTEYKPTVRLATRDDVPRAVRTLAAAFADYPATRHTVDPDRHIERVTELQELFLTRVGLDIGKVWVADDGAAVAVWTTPESVEAGAVFAEIGPRMAELSGSRLAAQQQMEGLLAPHRPKEPAWFLATVGVSPDHQGKGLGSAVVLPGVEAAERAGVPAFLETSAPRNLPFYERLGFTVTADVEVPEGPRTWCMTRKPGA

How the values were obtained:
RAJI cells = test: JNG assay, co-culture with RAJI cells; format: cell-based; conditions: JNG cells expressing construct, co-culture with Raji
Procedure, shortened: (§1)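 Jurkat-NFAT-GFP (JNG) cells stably expressing SAR constructs via lentiviral transduction and puromycin/blasticidin selection were cocultured with target cells at E:T ~1:2 for ~4–18 h. NFAT-driven GFP was measured by FACS versus parental JNG cells; scores +/- to 5+ denote ~5–50% GFP-positive cells.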

RAJI-CD19-KO cells = test: JNG assay, co-culture with RAJI-CD19-KO cells; format: cell-based; conditions: co-culture with Raji-CD19-KO
Procedure, shortened: as §1

SKOV-3 cells = test: JNG assay, co-culture with SKOV-3 cells; format: cell-based; conditions: co-culture with SKOV-3
Method: Cellular supernatant is collected and assayed for the induction of cytokines (e.g., IL2).
JNG (Jurkat cells expressing EGFP under an NFAT promoter) were infected with lentiviral vectors encoding different single chain and multi-chain SARs by spinfection in the presence of 8 µg/ml of Polybrene® (Sigma, Catalog no. H9268). The Jurkat-NFAT-GFP cells are engineered in such a way that the IL-2 promoter, which carries NFAT binding sites, is cloned upstream of the GFP gene. These cells have been used to study signaling via TCR and CAR. The different SARs were stably expressed in Jurkat NFAT-GFP cells by lentiviral mediated gene transfer, followed by selection with puromycin or blasticidin. No drug selection was used in case the construct lacked an antibiotic resistance gene. The SAR-expressing Jurkat-NFAT-GFP cells were cocultured with the target cells at E:T ratio of approximately 1:2 for approximately 4 hours to 18 hours. When the interaction between SIRs and their target antigen results in activation of the NFAT pathway, GFP expression is induced. […] GFP expression was monitored by FACS analysis. The Jurkat-NFAT-GFP (parental) cells were used as control. The structure of different constructs can be determined based on their names. […] The sequence of the other constructs in the table can be similarly determined from their names and by referring to the different Tables of this disclosure that provide the names and SEQ ID NO of the different modules. Alternatively, the composition and modular architecture of the different SAR constructs can be determined from their sequences by bioinformatics tools, including using nucleic acid and amino acids homology searches. A SAR is considered positive in the assay in case the SAR expressing Jurkat-NFAT-GFP cells show greater % GFP positive cells when cultured with the target cell line as compared to parental Jurkat-NFAT-GFP cells. […] In general, the number +/-, +, 2+, 3+, 4+, 5+ refer to approximately 5%, 10%, 20%, 30%, 40% and 50% GFP positive cells. The % of GFP induction in the above assay is dependent not only the relative strength of the SAR but also, among other factors, on the relative level of expression of the SAR in the JNG cells and the relative level of expression of the target antigen in the target cell line. To control for the difference in gene transduction efficiency of the different SAR constructs, the experiment was conducted with JNG cells transduced with SAR constructs co-expressing a drug resistance gene (e.g., puromycin or PAC) followed by drug selection to generate a stable population of SAR-expressing cells. It is to be noted that the drug resistance gene (e.g., PAC) in the SAR constructs is optional and in vivo studies were conducted with SAR constructs lacking the PAC gene.

Nalm6 cells = test: JNG assay, co-culture with Nalm6 cells; format: cell-based; conditions: co-culture with Nalm6
Procedure, shortened: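 Jurkat NFAT-GFP reporter cells stably expressing lentivirally delivered SARs (puromycin or blasticidin selection) were cocultured with target cells at E:T ~1:2 for ~4–18 h. GFP was read by FACS, and % GFP+ cells were scored against parental reporter cells (+/-, +, 2+…5+ ≈ 5%, 10%, 20%…50%).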

KMH2 (PSMA-low) cells = test: JNG NFAT-GFP induction on co-culture with KMH2
Huh-7 cells = test: JNG NFAT-GFP induction on co-culture with Huh-7
L363 cells = test: JNG assay, co-culture with L363 cells; format: cell-based; conditions: co-culture with L363
Procedure, shortened: as §1

Molecule | NFAT-GFP ASSAY: Raji (RAJI cells) | NFAT-GFP ASSAY: Raji-CD19-KO (RAJI-CD19-KO cells) | NFAT-GFP ASSAY: SKOV-3 (SKOV-3 cells) | NFAT-GFP ASSAY: Nalm6 (Nalm6 cells) | NFAT-GFP ASSAY: KMH2 (KMH2 (PSMA-low) cells) | NFAT-GFP ASSAY: Huh-7 (Huh-7 cells) | NFAT-GFP ASSAY: L363 (L363 cells)
B1 | 2+ (refer to approximately 5%, 10%, 20%, 30%, 40% and 50% GFP positive cells) | 2+ (refer to approximately 5%, 10%, 20%, 30%, 40% and 50% GFP positive cells) | 2+ (refer to approximately 5%, 10%, 20%, 30%, 40% and 50% GFP positive cells) | 3+ (refer to approximately 5%, 10%, 20%, 30%, 40% and 50% GFP positive cells) |  |  | 
B2 |  |  |  |  | negligible GFP induction | negligible GFP induction | 
B3 |  | 2+ (refer to approximately 5%, 10%, 20%, 30%, 40% and 50% GFP positive cells) | 2+ (refer to approximately 5%, 10%, 20%, 30%, 40% and 50% GFP positive cells) | 3+ (refer to approximately 5%, 10%, 20%, 30%, 40% and 50% GFP positive cells) |  |  | + (refer to approximately 5%, 10%, 20%, 30%, 40% and 50% GFP positive cells)
